Patent US20180119100A1
Values belong to the substance of their own block, whether it stands above or below them.

How the values were obtained:
Experiment in all cases: cell-based or functional assay
[1] = target: Jagged-1 expressed on mouse GM-BMDCs (mouse) (UniProt Q9QXX0)
[2] = target: OX40L expressed on mouse GM-BMDCs (mouse) (UniProt P43488)
[3] = target: Notch 3 expressed on mouse T-cells (Tregs) (mouse) (UniProt Q61982)
UniProt Q61982, sequence (Q61982 40-2318): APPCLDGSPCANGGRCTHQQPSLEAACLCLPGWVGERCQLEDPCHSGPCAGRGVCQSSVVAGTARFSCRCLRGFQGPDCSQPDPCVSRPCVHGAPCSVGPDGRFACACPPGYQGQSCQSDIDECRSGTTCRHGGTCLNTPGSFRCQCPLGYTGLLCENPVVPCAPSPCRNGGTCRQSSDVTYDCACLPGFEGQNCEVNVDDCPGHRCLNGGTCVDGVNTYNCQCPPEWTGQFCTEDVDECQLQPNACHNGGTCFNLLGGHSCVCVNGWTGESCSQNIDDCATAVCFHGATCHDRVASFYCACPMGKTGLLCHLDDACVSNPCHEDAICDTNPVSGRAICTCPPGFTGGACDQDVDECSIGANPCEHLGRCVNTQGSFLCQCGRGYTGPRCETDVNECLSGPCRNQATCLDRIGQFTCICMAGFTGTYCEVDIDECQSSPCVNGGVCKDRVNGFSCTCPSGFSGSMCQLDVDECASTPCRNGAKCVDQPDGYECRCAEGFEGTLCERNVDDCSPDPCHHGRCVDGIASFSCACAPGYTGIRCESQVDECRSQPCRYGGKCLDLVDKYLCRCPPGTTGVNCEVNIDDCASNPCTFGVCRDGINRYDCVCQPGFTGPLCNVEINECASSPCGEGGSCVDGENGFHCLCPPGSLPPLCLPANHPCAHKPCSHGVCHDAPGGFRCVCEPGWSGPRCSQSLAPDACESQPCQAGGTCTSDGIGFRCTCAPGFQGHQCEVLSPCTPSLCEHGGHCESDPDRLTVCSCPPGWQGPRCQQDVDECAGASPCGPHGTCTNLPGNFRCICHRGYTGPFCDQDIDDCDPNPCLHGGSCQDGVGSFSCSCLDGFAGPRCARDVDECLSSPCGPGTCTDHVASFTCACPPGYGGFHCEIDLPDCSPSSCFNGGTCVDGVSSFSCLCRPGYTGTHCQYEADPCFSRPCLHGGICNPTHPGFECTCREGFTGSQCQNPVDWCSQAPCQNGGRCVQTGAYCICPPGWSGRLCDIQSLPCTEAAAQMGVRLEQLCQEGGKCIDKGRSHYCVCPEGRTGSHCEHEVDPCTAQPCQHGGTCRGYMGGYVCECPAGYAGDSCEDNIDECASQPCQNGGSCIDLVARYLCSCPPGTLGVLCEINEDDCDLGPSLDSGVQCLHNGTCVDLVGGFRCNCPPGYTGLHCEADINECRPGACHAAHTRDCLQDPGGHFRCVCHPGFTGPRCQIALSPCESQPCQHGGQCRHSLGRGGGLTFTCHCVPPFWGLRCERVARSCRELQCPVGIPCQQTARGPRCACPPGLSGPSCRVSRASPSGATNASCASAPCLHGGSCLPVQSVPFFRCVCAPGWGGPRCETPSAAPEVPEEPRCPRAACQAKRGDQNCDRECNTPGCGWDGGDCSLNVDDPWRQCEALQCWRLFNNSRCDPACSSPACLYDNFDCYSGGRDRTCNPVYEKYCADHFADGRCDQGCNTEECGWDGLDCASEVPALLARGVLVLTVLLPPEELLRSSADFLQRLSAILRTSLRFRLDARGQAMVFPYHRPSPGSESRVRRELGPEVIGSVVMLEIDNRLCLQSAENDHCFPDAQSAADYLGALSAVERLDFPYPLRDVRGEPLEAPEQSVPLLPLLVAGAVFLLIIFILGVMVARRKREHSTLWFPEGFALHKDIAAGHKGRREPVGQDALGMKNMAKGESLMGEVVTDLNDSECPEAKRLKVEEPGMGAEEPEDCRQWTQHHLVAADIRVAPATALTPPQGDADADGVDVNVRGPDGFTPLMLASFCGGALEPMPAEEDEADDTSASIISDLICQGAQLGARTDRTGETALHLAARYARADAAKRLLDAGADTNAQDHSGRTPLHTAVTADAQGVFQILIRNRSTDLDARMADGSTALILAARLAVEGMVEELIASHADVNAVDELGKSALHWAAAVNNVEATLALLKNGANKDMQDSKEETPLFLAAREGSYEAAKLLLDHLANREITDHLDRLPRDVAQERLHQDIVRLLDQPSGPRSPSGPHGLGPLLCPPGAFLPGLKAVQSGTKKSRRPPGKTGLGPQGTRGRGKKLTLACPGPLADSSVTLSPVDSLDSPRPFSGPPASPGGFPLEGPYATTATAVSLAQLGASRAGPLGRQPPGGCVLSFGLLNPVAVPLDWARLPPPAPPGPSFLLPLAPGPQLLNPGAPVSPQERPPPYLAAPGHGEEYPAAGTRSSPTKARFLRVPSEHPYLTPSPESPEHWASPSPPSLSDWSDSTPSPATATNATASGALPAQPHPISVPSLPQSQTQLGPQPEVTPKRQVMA

UniProt Q9QXX0, sequence (Q9QXX0 34-1218): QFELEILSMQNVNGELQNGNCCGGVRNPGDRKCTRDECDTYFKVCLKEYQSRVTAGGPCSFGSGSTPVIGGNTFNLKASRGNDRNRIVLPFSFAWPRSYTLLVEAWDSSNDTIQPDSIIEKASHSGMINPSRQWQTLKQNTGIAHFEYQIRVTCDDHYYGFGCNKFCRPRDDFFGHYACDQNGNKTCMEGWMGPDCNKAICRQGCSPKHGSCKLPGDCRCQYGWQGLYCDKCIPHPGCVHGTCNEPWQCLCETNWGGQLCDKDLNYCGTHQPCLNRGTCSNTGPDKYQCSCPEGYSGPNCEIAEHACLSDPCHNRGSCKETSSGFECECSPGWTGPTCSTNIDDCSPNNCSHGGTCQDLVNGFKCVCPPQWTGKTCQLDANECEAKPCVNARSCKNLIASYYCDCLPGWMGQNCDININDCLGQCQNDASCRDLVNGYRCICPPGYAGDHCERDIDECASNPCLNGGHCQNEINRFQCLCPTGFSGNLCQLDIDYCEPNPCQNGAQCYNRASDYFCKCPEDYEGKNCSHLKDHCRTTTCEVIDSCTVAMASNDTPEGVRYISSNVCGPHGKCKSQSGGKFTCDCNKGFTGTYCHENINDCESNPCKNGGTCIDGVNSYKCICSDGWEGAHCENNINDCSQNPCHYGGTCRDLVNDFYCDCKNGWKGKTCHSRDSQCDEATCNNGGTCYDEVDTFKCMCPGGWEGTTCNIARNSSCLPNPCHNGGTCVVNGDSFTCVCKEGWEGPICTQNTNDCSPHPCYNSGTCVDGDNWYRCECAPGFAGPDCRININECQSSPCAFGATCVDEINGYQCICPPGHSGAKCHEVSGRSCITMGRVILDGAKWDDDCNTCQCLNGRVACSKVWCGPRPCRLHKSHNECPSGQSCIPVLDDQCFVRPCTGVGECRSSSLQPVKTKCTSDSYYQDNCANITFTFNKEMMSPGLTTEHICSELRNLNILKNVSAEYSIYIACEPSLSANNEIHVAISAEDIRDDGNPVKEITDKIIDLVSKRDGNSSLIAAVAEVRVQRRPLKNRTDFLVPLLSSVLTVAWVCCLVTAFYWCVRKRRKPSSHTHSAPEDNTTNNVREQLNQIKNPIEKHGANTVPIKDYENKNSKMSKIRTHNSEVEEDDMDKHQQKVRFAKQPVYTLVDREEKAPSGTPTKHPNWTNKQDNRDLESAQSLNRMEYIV
UniProt P43488, sequence (P43488 whole entry): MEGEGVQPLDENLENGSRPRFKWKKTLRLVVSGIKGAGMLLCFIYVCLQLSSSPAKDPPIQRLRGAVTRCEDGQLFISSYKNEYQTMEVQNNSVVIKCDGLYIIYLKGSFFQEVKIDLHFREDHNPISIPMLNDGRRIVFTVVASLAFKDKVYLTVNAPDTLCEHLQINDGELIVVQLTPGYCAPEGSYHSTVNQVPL

- Treg proliferation (%) in GM-BMDC/CD4+ T-cell co-culture with anti-Jagged-1-Hi (13.0% without antibody) [1]: 5.3%
Substance: Blocking antibody to Jagged-1 (AF599, R&D systems)

- Treg proliferation (%) in GM-BMDC/CD4+ T-cell co-culture with anti-OX40L-Hi (13.0% without antibody) [2]: 3.7%
Substance: Blocking antibody to OX40L (AF1236, R&D systems)

- Proliferating Foxp3+ T cells positive for Notch 3 NICD in GM-BMDC/T-cell co-cultures (FACS) [3]: 97%
Substance: Jagged-1 expressed on mouse GM-BMDCs (from UniProt Q9QXX0 34-1218) (ligand)
